Data on 4 molecules can be found in US20190256610A1 (NATIONAL UNIVERSITY CORPORATION HOKKAIDO UNIVERSITY, published 2019).

Assay [1] concerns the target T1, human Eva1 protein (human, UniProt O60487 27-150, limits assumed).
T1 construct: Soluble analyte in the SPR work and partner in the crystal; it calls it 'the antigen, that is, the Eva1 protein'; also called human-derived Eva1 protein; hEva1
T1 sequence: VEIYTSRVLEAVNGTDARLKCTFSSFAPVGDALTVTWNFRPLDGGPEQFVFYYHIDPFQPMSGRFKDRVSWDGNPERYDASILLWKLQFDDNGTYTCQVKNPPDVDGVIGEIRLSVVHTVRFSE
Briefly: SPR (Biacore), as for the mouse antibodies. From the text:
(§1) To select hybridomas for producing antibodies having a higher antigen affinity from the 28 hybridomas, a surface plasmon resonance assay system Biacore was used to calculate the KD value and so forth of each antibody (hereinafter also referred to as “candidate antibody”). Concretely, first, an antibody capable of capturing mouse IgG was immobilized on a dextran-coated sensor chip (CMS, manufactured by GE health care). Then, this antibody captured each candidate antibody on the sensor chip. Subsequently, the antigen, that is, the Eva1 protein was flowed. Note that, in flowing the antigen, a solution of 10 mM-Tris-HCl (pH 7.5), 150 mM-NaCl, and 3 mM-EDTA (pH 8.0) was used. Moreover, as a solution for dissociating the antigen from the candidate antibody (captured candidate-antibody resuscitation solution), a 10 mM glycine solution (pH 1.7) was used. Thus, using these solutions, the binding reaction and the dissociation reaction between each candidate antibody and the antigen were detected with Biacore, and analyzed using the attached software.
Further, the binding reaction and the dissociation reaction between the B2E5-48 chimeric antibody and the antigen were detected with Biacore as in the case of the mouse antibodies.

A further assay addresses T2, mouse Eva1 protein (mouse, UniProt O70255 27-150, limits assumed).
T2 construct: Used in SPR; also called mouse-derived Eva1 protein; mEva1
T2 sequence: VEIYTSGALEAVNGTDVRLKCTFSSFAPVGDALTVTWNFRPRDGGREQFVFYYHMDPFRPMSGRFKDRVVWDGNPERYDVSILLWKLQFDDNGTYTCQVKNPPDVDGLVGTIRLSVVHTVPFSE
Kind of assay: SPR.

The target of another assay is T3, human Eva1 mutant (I81M) (human, UniProt O60487 27-150, limits assumed).
T3 construct: Human residue replaced by the mouse one
T3 chain: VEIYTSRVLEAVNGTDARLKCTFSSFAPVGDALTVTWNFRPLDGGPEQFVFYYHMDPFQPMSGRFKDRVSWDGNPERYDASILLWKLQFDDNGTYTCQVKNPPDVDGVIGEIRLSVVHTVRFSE
Briefly: SPR.

Assay [2] addresses T4, human Eva1 mutant (R33G, V34A, V134L, I135V, E137T) (human, UniProt O60487 27-150, limits assumed).
T4 construct: Human residues replaced by the mouse ones
T4 chain: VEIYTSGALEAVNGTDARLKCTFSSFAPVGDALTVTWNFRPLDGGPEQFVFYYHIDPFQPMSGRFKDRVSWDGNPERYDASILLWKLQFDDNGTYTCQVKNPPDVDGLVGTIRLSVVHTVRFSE
Kind of assay: SPR.

Assay [3] addresses T5, human Eva1 mutant (A43V, S96V, Q85R) (human, UniProt O60487 27-150, limits assumed).
T5 construct: Human residues replaced by the mouse ones
T5 chain: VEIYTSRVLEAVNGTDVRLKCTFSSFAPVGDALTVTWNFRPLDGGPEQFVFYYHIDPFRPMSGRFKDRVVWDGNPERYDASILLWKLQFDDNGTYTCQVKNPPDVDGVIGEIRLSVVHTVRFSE
Kind of assay: SPR.

The target of assay [4] is T6, human Eva1 mutant (L68R, P72R) (human, UniProt O60487 27-150, limits assumed).
T6 construct: Human residues replaced by the mouse ones; also called (L68R and P72R) double mutant
T6 chain: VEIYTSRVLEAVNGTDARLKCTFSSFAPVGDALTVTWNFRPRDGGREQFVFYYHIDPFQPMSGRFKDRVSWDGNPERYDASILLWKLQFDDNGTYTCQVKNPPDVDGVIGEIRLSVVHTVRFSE
Kind of assay: SPR.

A further assay addresses T7, human Eva1 L68R mutant (human, UniProt O60487 27-150, limits assumed).
T7 chain: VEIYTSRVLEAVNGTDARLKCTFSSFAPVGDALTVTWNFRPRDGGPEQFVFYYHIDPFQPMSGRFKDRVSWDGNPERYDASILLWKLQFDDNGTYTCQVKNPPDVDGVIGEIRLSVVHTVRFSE
Kind of assay: SPR.

A further assay concerns the target T8, human Eva1 P72R mutant (human, UniProt O60487 27-150, limits assumed).
T8 chain: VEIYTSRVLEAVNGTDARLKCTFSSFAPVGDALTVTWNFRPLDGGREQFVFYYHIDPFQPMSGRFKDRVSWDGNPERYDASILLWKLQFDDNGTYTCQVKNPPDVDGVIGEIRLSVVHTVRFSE
Kind of assay: SPR.

In assay [5] the target is T1, human Eva1 protein. Kind of assay: SPR (Biacore), antibody captured by anti-mouse IgG, Eva1 flowed.
Text: as §1

In the next assay the target is T9, human Eva1 Y104A mutant (human, UniProt O60487 27-150, limits assumed).
T9 chain: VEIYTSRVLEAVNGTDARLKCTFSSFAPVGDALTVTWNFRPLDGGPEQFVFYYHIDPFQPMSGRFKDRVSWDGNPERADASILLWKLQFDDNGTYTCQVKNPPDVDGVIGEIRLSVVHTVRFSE
Briefly: SPR with alanine mutants.

Assay [6] addresses T1, human Eva1 protein. Kind of assay: SPR.
Assay [7] addresses T10, human Eva1 mutant with arginine at position 103 substituted with alanine (human, UniProt O60487 27-150, limits assumed).
T10 construct: also called R103A
T10 chain: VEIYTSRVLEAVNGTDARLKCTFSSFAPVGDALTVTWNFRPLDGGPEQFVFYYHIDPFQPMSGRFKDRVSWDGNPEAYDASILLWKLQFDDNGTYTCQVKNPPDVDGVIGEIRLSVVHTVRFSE
Kind of assay: SPR with alanine mutants.

For the next assay, the target named is T11, human Eva1 S96A mutant (human, UniProt O60487 27-150, limits assumed).
T11 chain: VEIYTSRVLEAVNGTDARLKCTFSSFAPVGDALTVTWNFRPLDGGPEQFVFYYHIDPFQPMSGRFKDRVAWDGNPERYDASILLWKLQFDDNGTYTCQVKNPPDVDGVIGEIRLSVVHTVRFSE
Kind of assay: SPR with alanine mutants.

The target in assay [8] is T12, human Eva1 mutant with glutamic acid at position 102 substituted with alanine (human, UniProt O60487 27-150, limits assumed).
T12 construct: also called E102A
T12 chain: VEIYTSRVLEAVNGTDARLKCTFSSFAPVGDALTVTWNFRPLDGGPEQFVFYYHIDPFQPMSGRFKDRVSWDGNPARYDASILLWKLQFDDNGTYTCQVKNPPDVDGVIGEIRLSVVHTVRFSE
Kind of assay: SPR with alanine mutants.

Another assay deals with T13, human Eva1 Y30A mutant (human, UniProt O60487 27-150, limits assumed).
T13 chain: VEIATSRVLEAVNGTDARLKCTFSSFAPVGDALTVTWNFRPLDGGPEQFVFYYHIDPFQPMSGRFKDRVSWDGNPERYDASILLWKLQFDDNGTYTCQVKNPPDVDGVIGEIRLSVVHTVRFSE
Briefly: SPR.

B1: B2E5-48 chimeric antibody (antibody, V domains shown)
VH: QVQLQQPGAELVKPGASVKLSCKASGYTFTNYWMHWVKLRPGQGFEWIGEINPTNGGTDYNEKFKRKATLTVDKSSSTAYMQLSSLTSEDSAVYYCTIYTTALDYWGQGTTLTVSS
VL: QIVLTQSPALMSASPGERVTLTCSASSSVGYMYWYQQKPGSSPKPWIYVTSNLASGVPARFSGSGSGTSYSLTISSMEAEDAATYYCQQWSSNPPTFGAGTKLELK
On to B1, for which, in the assay with human Eva1 protein [1], binding was put at a Kd of 15.2 nM, the koff amounted to 0.00747 s⁻¹ and the association rate constant (kon) was 490000 M⁻¹ s⁻¹.

B2: B2E5-48 mouse antibody (antibody, mouse IgG2b, V domains shown)
VH: QVQLQQPGAELVKPGASVKLSCKASGYTFTNYWMHWVKLRPGQGFEWIGEINPTNGGTDYNEKFKRKATLTVDKSSSTAYMQLSSLTSEDSAVYYCTIYTTALDYWGQGTTLTVSS
VL: QIVLTQSPALMSASPGERVTLTCSASSSVGYMYWYQQKPGSSPKPWIYVTSNLASGVPARFSGSGSGTSYSLTISSMEAEDAATYYCQQWSSNPPTFGAGTKLELK
notes: Mouse monoclonal from a hybridoma; also called B2E5-48 antibody
With B2, the binding result is listed as “no binding” with mouse Eva1 protein; “binds” with human Eva1 mutant (I81M); “binds” in assay [2]; “binds” in [3]; “no binding” in [4]; “binds” with human Eva1 L68R mutant. Besides, the binding result with human Eva1 P72R mutant was “no binding”. Binding with human Eva1 protein [5] was characterised by a dissociation constant (Kd) of 11.7 nM. The koff with human Eva1 protein [5] amounted to 0.00808 s⁻¹. In the assay with human Eva1 protein [5], the kon turned out to be 689000 M⁻¹ s⁻¹.

B3: C3 mouse antibody (antibody, mouse IgG1, V domains shown)
VH: EVKLVESGGGLVQPGGSLKLSCAASGFTFSSYTMSWVRQTPEKRLEWVAYITTGAGRTYYPDTVKGRFTISRDNAKNTLYLQMSSLKSEDTAMYYCARHRGDYWGQGTSVTVSS
VL: SIVMTQTPKFLLVSAGDRVTITCKASQSVSNDVAWYQQKPGQSPKLLIYYASNRFTGVPDRFTGSGYGTDFTFTISTVQAEDLAVYFCQQDYSSPWTFGGGTKLEIK
notes: Mouse monoclonal from a hybridoma; also called C3 antibody
In the case of B3, in the assay with human Eva1 Y104A mutant, the binding result was “binds”. Also, the “KD for human Eva1 against KD for mouse Eva1” value with human Eva1 protein [6] was approximately 0.1. In the assay with human Eva1 protein [5], this molecule displayed a Kd of 9.1 nM, a koff of 0.00831 s⁻¹ and an on-rate constant (kon) of 918000 M⁻¹ s⁻¹.

B4: A5D11-10 mouse antibody (antibody, V domains shown)
VH: EVQLKESGPGLVQPSQSLSITCTVSGFSLTRYGVHWVRQSPGKGLEWLGVIWSGGSTDYNAAFISRLSISKDNSKSQVFFKMNSLQANDTAIYYCARNGYDGGYAMDYWGQGTSVTVSS
VL: DIQMTQTTSSLSASLGDRVTISCRASQDISNYLNWYQQKPDGTVKLLIYYTSRLHSGVPSRFSGSGSRIDYSLTISNLEQEDFATYFCQQSDTLPPWTFGGGTKLEIK
notes: Mouse monoclonal from a hybridoma; also called A5D11-10 antibody
In the case of B4, the “fold increase of KD against wild type human Eva1” value in assay [7] and in [8] was approximately 25 fold in each case. The binding result is reported as “binds” with human Eva1 S96A mutant and “no binding” with human Eva1 Y30A mutant. This molecule returned a Kd with human Eva1 protein [5] of 5.83 nM. Also, in the assay with human Eva1 protein [5], the koff was determined as 0.00212 s⁻¹. In the assay with human Eva1 protein [5], this molecule showed a kon of 364000 M⁻¹ s⁻¹.
